From patent publication US20190338009A1 (ZEALAND PHARMA A S, published 2019)
Square brackets hold non-standard residues; d marks the D form. Aib = CC(C)(N)C(=O)O

B1: Compound 31 (peptide)
peptide: H-H[Aib]EGSFTSELATILDGKAARDFIAWLIAHKITD-OH
SMILES: CC[C@H](C)[C@H](NC(=O)[C@H](CC(C)C)NC(=O)[C@H](Cc1c[nH]c2ccccc12)NC(=O)[C@H](C)NC(=O)[C@@H](NC(=O)[C@H](Cc1ccccc1)NC(=O)[C@H](CC(=O)O)NC(=O)[C@H](CCCNC(=N)N)NC(=O)[C@H](C)NC(=O)[C@H](C)NC(=O)[C@H](CCCCN)NC(=O)CNC(=O)[C@H](CC(=O)O)NC(=O)[C@H](CC(C)C)NC(=O)[C@@H](NC(=O)[C@@H](NC(=O)[C@H](C)NC(=O)[C@H](CC(C)C)NC(=O)[C@H](CCC(=O)O)NC(=O)[C@H](CO)NC(=O)[C@@H](NC(=O)[C@H](Cc1ccccc1)NC(=O)[C@H](CO)NC(=O)CNC(=O)[C@H](CCC(=O)O)NC(=O)C(C)(C)NC(=O)[C@@H](N)Cc1c[nH]cn1)[C@@H](C)O)[C@@H](C)O)[C@@H](C)CC)[C@@H](C)CC)C(=O)N[C@@H](C)C(=O)N[C@@H](Cc1c[nH]cn1)C(=O)N[C@@H](CCCCN)C(=O)N[C@H](C(=O)N[C@H](C(=O)N[C@@H](CC(=O)O)C(=O)O)[C@@H](C)O)[C@@H](C)CC
B2: Compound 30 (peptide)
peptide: H-H[Aib]EGSFTSELATILDEQAARDFIAWLYRHKITD-OH
SMILES: CC[C@H](C)[C@H](NC(=O)[C@H](Cc1ccccc1)NC(=O)[C@H](CC(=O)O)NC(=O)[C@H](CCCNC(=N)N)NC(=O)[C@H](C)NC(=O)[C@H](C)NC(=O)[C@H](CCC(N)=O)NC(=O)[C@H](CCC(=O)O)NC(=O)[C@H](CC(=O)O)NC(=O)[C@H](CC(C)C)NC(=O)[C@@H](NC(=O)[C@@H](NC(=O)[C@H](C)NC(=O)[C@H](CC(C)C)NC(=O)[C@H](CCC(=O)O)NC(=O)[C@H](CO)NC(=O)[C@@H](NC(=O)[C@H](Cc1ccccc1)NC(=O)[C@H](CO)NC(=O)CNC(=O)[C@H](CCC(=O)O)NC(=O)C(C)(C)NC(=O)[C@@H](N)Cc1c[nH]cn1)[C@@H](C)O)[C@@H](C)O)[C@@H](C)CC)C(=O)N[C@@H](C)C(=O)N[C@@H](Cc1c[nH]c2ccccc12)C(=O)N[C@@H](CC(C)C)C(=O)N[C@@H](Cc1ccc(O)cc1)C(=O)N[C@@H](CCCNC(=N)N)C(=O)N[C@@H](Cc1c[nH]cn1)C(=O)N[C@@H](CCCCN)C(=O)N[C@H](C(=O)N[C@H](C(=O)N[C@@H](CC(=O)O)C(=O)O)[C@@H](C)O)[C@@H](C)CC
B3: Compound 35 (peptide)
peptide: H-H[Aib]EGTFTSELATILDEQAARDFINWLKAHKITD-OH
SMILES: CC[C@H](C)[C@H](NC(=O)[C@H](Cc1ccccc1)NC(=O)[C@H](CC(=O)O)NC(=O)[C@H](CCCNC(=N)N)NC(=O)[C@H](C)NC(=O)[C@H](C)NC(=O)[C@H](CCC(N)=O)NC(=O)[C@H](CCC(=O)O)NC(=O)[C@H](CC(=O)O)NC(=O)[C@H](CC(C)C)NC(=O)[C@@H](NC(=O)[C@@H](NC(=O)[C@H](C)NC(=O)[C@H](CC(C)C)NC(=O)[C@H](CCC(=O)O)NC(=O)[C@H](CO)NC(=O)[C@@H](NC(=O)[C@H](Cc1ccccc1)NC(=O)[C@@H](NC(=O)CNC(=O)[C@H](CCC(=O)O)NC(=O)C(C)(C)NC(=O)[C@@H](N)Cc1c[nH]cn1)[C@@H](C)O)[C@@H](C)O)[C@@H](C)O)[C@@H](C)CC)C(=O)N[C@@H](CC(N)=O)C(=O)N[C@@H](Cc1c[nH]c2ccccc12)C(=O)N[C@@H](CC(C)C)C(=O)N[C@@H](CCCCN)C(=O)N[C@@H](C)C(=O)N[C@@H](Cc1c[nH]cn1)C(=O)N[C@@H](CCCCN)C(=O)N[C@H](C(=O)N[C@H](C(=O)N[C@@H](CC(=O)O)C(=O)O)[C@@H](C)O)[C@@H](C)CC
B4: Compound 33 (peptide)
peptide: H-H[Aib]EGTFTSELATILDEQAARDFINWLIAHKITD-OH
SMILES: CC[C@H](C)[C@H](NC(=O)[C@H](CC(C)C)NC(=O)[C@H](Cc1c[nH]c2ccccc12)NC(=O)[C@H](CC(N)=O)NC(=O)[C@@H](NC(=O)[C@H](Cc1ccccc1)NC(=O)[C@H](CC(=O)O)NC(=O)[C@H](CCCNC(=N)N)NC(=O)[C@H](C)NC(=O)[C@H](C)NC(=O)[C@H](CCC(N)=O)NC(=O)[C@H](CCC(=O)O)NC(=O)[C@H](CC(=O)O)NC(=O)[C@H](CC(C)C)NC(=O)[C@@H](NC(=O)[C@@H](NC(=O)[C@H](C)NC(=O)[C@H](CC(C)C)NC(=O)[C@H](CCC(=O)O)NC(=O)[C@H](CO)NC(=O)[C@@H](NC(=O)[C@H](Cc1ccccc1)NC(=O)[C@@H](NC(=O)CNC(=O)[C@H](CCC(=O)O)NC(=O)C(C)(C)NC(=O)[C@@H](N)Cc1c[nH]cn1)[C@@H](C)O)[C@@H](C)O)[C@@H](C)O)[C@@H](C)CC)[C@@H](C)CC)C(=O)N[C@@H](C)C(=O)N[C@@H](Cc1c[nH]cn1)C(=O)N[C@@H](CCCCN)C(=O)N[C@H](C(=O)N[C@H](C(=O)N[C@@H](CC(=O)O)C(=O)O)[C@@H](C)O)[C@@H](C)CC
B5: Compound 34 (peptide)
peptide: H-H[Aib]EGTFTSELATILDEQAARDFISWLIAHKITD-OH
SMILES: CC[C@H](C)[C@H](NC(=O)[C@H](CC(C)C)NC(=O)[C@H](Cc1c[nH]c2ccccc12)NC(=O)[C@H](CO)NC(=O)[C@@H](NC(=O)[C@H](Cc1ccccc1)NC(=O)[C@H](CC(=O)O)NC(=O)[C@H](CCCNC(=N)N)NC(=O)[C@H](C)NC(=O)[C@H](C)NC(=O)[C@H](CCC(N)=O)NC(=O)[C@H](CCC(=O)O)NC(=O)[C@H](CC(=O)O)NC(=O)[C@H](CC(C)C)NC(=O)[C@@H](NC(=O)[C@@H](NC(=O)[C@H](C)NC(=O)[C@H](CC(C)C)NC(=O)[C@H](CCC(=O)O)NC(=O)[C@H](CO)NC(=O)[C@@H](NC(=O)[C@H](Cc1ccccc1)NC(=O)[C@@H](NC(=O)CNC(=O)[C@H](CCC(=O)O)NC(=O)C(C)(C)NC(=O)[C@@H](N)Cc1c[nH]cn1)[C@@H](C)O)[C@@H](C)O)[C@@H](C)O)[C@@H](C)CC)[C@@H](C)CC)C(=O)N[C@@H](C)C(=O)N[C@@H](Cc1c[nH]cn1)C(=O)N[C@@H](CCCCN)C(=O)N[C@H](C(=O)N[C@H](C(=O)N[C@@H](CC(=O)O)C(=O)O)[C@@H](C)O)[C@@H](C)CC
B6: Compound 32 (peptide)
peptide: H-H[Aib]EGTFSSELATILDGKAARDFIAWLIAHKITD-OH
SMILES: CC[C@H](C)[C@H](NC(=O)[C@H](CC(C)C)NC(=O)[C@H](Cc1c[nH]c2ccccc12)NC(=O)[C@H](C)NC(=O)[C@@H](NC(=O)[C@H](Cc1ccccc1)NC(=O)[C@H](CC(=O)O)NC(=O)[C@H](CCCNC(=N)N)NC(=O)[C@H](C)NC(=O)[C@H](C)NC(=O)[C@H](CCCCN)NC(=O)CNC(=O)[C@H](CC(=O)O)NC(=O)[C@H](CC(C)C)NC(=O)[C@@H](NC(=O)[C@@H](NC(=O)[C@H](C)NC(=O)[C@H](CC(C)C)NC(=O)[C@H](CCC(=O)O)NC(=O)[C@H](CO)NC(=O)[C@H](CO)NC(=O)[C@H](Cc1ccccc1)NC(=O)[C@@H](NC(=O)CNC(=O)[C@H](CCC(=O)O)NC(=O)C(C)(C)NC(=O)[C@@H](N)Cc1c[nH]cn1)[C@@H](C)O)[C@@H](C)O)[C@@H](C)CC)[C@@H](C)CC)C(=O)N[C@@H](C)C(=O)N[C@@H](Cc1c[nH]cn1)C(=O)N[C@@H](CCCCN)C(=O)N[C@H](C(=O)N[C@H](C(=O)N[C@@H](CC(=O)O)C(=O)O)[C@@H](C)O)[C@@H](C)CC
B7: Compound 2 (peptide)
peptide: H-H[Aib]EGTFSSELATILDEQAARDFIAWLIAHKITD-OH
SMILES: CC[C@H](C)[C@H](NC(=O)[C@H](CC(C)C)NC(=O)[C@H](Cc1c[nH]c2ccccc12)NC(=O)[C@H](C)NC(=O)[C@@H](NC(=O)[C@H](Cc1ccccc1)NC(=O)[C@H](CC(=O)O)NC(=O)[C@H](CCCNC(=N)N)NC(=O)[C@H](C)NC(=O)[C@H](C)NC(=O)[C@H](CCC(N)=O)NC(=O)[C@H](CCC(=O)O)NC(=O)[C@H](CC(=O)O)NC(=O)[C@H](CC(C)C)NC(=O)[C@@H](NC(=O)[C@@H](NC(=O)[C@H](C)NC(=O)[C@H](CC(C)C)NC(=O)[C@H](CCC(=O)O)NC(=O)[C@H](CO)NC(=O)[C@H](CO)NC(=O)[C@H](Cc1ccccc1)NC(=O)[C@@H](NC(=O)CNC(=O)[C@H](CCC(=O)O)NC(=O)C(C)(C)NC(=O)[C@@H](N)Cc1c[nH]cn1)[C@@H](C)O)[C@@H](C)O)[C@@H](C)CC)[C@@H](C)CC)C(=O)N[C@@H](C)C(=O)N[C@@H](Cc1c[nH]cn1)C(=O)N[C@@H](CCCCN)C(=O)N[C@H](C(=O)N[C@H](C(=O)N[C@@H](CC(=O)O)C(=O)O)[C@@H](C)O)[C@@H](C)CC

What was measured:
[1] = molecular target: T1, human GLP-2 receptor (hGLP2-R) (human, UniProt O95838 1-553); assay: cell-based or functional assay
T1 sequence (looked up): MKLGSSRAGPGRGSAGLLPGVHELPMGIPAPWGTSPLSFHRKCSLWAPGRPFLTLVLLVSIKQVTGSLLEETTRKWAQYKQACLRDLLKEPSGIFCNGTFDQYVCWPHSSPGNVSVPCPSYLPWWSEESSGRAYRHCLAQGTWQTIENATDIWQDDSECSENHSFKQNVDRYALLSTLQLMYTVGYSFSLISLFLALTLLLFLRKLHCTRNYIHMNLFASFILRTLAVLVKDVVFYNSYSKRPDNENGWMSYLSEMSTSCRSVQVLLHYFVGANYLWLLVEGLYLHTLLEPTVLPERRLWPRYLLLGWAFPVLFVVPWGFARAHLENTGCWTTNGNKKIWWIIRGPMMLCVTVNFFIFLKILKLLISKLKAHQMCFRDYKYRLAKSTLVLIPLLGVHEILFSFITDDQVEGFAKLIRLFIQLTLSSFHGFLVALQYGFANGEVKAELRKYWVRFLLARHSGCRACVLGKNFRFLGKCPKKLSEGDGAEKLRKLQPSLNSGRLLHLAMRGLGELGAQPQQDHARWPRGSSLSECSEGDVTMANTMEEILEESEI

[2] = molecular target: human glucagon-like peptide 1 receptor (GLP-1R) (human, UniProt P43220 24-463); assay: cell-based or functional assay

EC50 GLP-2 (nM); cAMP AlphaScreen, HEK293 cells expressing human GLP-2R [1] [nM] | EC50 GLP-1 (nM); cAMP AlphaScreen, HEK293 cells expressing human GLP-1R [2] [nM] | Binder
0.078 | 0.02 | B1
0.034 | 0.1 | B2
0.048 | 0.006 | B3
0.041 | 0.004 | B4
0.049 | 0.005 | B5
0.15 | 0.038 | B6
0.034 | 0.046 | B7
